Measured values reported in patent US20050203281A1, “Production of recombinant fragments of muscle acetylcholine receptor and their use for ex vivo immunoadsorption of anti-ch receptor antibodies from myasthenic patients” (priority 2002, published 2005).
“Also recorded” adds a separate entry of the source.

What was measured:
alpha1-210 fragment = alpha1-210 fragment (Homo sapiens, UniProt P02708); settings: read-out: concentration of unlabeled toxin giving 50% inhibition of 125I-alpha-BTX binding
[1] = tested on: anti-AChR antibodies from MG sera; assay: Immunoadsorption of anti-AChR antibodies from MG sera by CNBr-Sepharose-immobilized subunit domains, RIA with human AChR from TE671 cells; assay type: binding; settings: for immunoadsorption of anti-AChR antibodies (in words): immobilized on Sepharose-CNBr
Procedure: FIG. 6 illustrates the immunoadsorption of anti-AChR antibodies from MG sera using immobilized alpha1-210 (black bars), gamma1-218 (grey bars) and epsilon1-219 (blank bars). Each subunit has been expressed in the yeast Pichia pastoris and the purified proteins have been covalently immobilized on CNBr-Sepharose beads. 64 MG positive sera were assayed for binding to human AChR after incubation with alpha1-210 immobilized on CNBr-Sepharose (together with BSA) or with just BSA immobilized on the same insoluble matrix. 2.5 ul of each MG patient serum were incubated with 0.2 ug immobilized alpha1-210 mixed with BSA or the same amount of BSA at […] for 2-3h (in a total volume of 0.16 ml) followed by centrifugation. Samples of the supernatants, each containing an amount corresponding to 0.9 ul of the treated MG sera were subsequently used in a typical RIA MG diagnostic test (Lindstrom et al., Meth. Enzymol. 74, 432460, 1981) with human AChR from TE671 cells. The percentage of immunoadsorption was estimated as described in the Example 3. Samples were processed in duplicates. Results shown (black bars) are an average of two experiments. Sera are sorted in decreasing percentage of immunoadsorption to immobilized alpha1-210.
FIG. 7 illustrates the immunoadsorption of anti-AChR antibodies from MG sera against immobilized alpha1-210 (black bars), gamma1-218 (gray bars) and a mix of both immobilized alpha1-210 and gamma1-218 (hatched bars). 9 MG sera were assayed for binding to human AChR after incubation of 20 fmoles anti-AChR MG antibodies with alpha1-210 (1 ug), or gamma1-218 (1 ug) or alpha1-210/gamma1-218 mix (containing 1 ug of each subunit) immobilized on CNBr-Sepharose. Incubation with just BSA immobilized to the same insoluble matrix served as a control to calculate the percent immunoadsorption against each of the subunits and the mix of both. After incubation with the Sepharose-immobilized proteins, sera were screened in a typical RIA experiment using TE671 AChR. The percentage of immunoadsorption was estimated as described in the Example 3. Samples were processed in duplicates. Results shown are an average of two experiments.
Immunoadsorption of MG autoantibodies by immobilized alpha1-210. 0.1 mg alpha1-210 mixed with 1.4 mg BSA was covalently bound to 0.5 gr CNBr-Sepharose according to manufacturer's protocol (Amersham). BSA was simply added to increase the protein/Sepharose ratio because the ratio of recombinant protein to Sepharose beads used would otherwise be too small; BSA is not necessary for larger scale experiments. In parallel, 1.5 mg BSA was bound to the same amount of CNBr-Sepharose under the same conditions as control. 2.5 ul MG patient sera were incubated with 0.2 ug immobilized alpha1-210 mixed with BSA, or the same amount of immobilized BSA alone, at 4° C. for 2-3 h (in a total volume of 0.16 ml) followed by centrifugation for bead precipitation. Samples of the supernatants, each containing an amount corresponding to 0.9 ul of these treated MG sera were subsequently used in a typical RIA MG diagnostic test (Lindstrom et al., Meth. Enzymol. 74, 432460, 1981) with human AChR from TE671 cells. The percentage of immunoadsorption was estimated as the ratio between the reduction in immunoprecipitated radiolabeled human AChR after incubation with alpha1-210 and the immunoprecipitated radiolabeled human AChR without incubation with alpha1-210 (incubation with plain immobilized BSA). 64 MG positive sera were assayed for binding to human AChR after incubation with immobilized alpha1-210 or BSA. […] We also tested immunoadsorption of the same set of MG sera by incubating 0.2 ug immobilized alpha1-210 with a fixed amount of anti-AChR antibodies (20 fmoles in variable volumes of MG sera depending on their titer) rather than a fixed serum volume.
Immunoadsorption of MG autoantibodies by immobilized gamma1-218 or epsilon1-219 domains. […]

[2] = tested on: anti-AChR antibodies from MG sera; assay: Immunoadsorption of anti-AChR antibodies from MG sera by immobilized epsilon1-219, RIA with human AChR from TE671-epsilon cells; assay type: binding
Procedure: A subset of […] sera was also tested with gamma1-218 immobilized on CNBr-Sepharose (gray bars) and a subset of 22 sera was screened against epsilon1-219 immobilized on CNBr-Sepharose (blank bars) as described in the Example 3. Sera which have not been tested for immunoadsorption with epsilon1-219 are indicated in the X axis with open circles and sera which have not been tested on both gamma1-218 and epsilon1-219 are indicated with filled circles.
Immunoadsorption of MG autoantibodies by immobilized gamma1-218 or epsilon1-219 domains. 0.1 mg[…] of purified gamma1-218 or epsilon 1-219 mixed with 1.4 mg BSA was covalently immobilized on 1 gr of CNBr-Sepharose according to manufacturer's protocol. In parallel, an identical column was prepared with 1.5 mg BSA, to serve as control. Variable amounts of MG patient sera containing 20 fmoles of anti-AChR antibodies were incubated with 1 ug immobilized gamma1-218 mixed with BSA or the same amount of BSA at 4° C. for 2-3 h followed by centrifugation Samples of the supernatants, each containing an amount corresponding to 6 fmoles of preadsorbed anti-AChR antibody, were subsequently tested in a typical RIA MG diagnostic test as above. Sera which had been incubated with gamma1-218 were screened with the human AChR from TE671 cells (which contains alpha, beta, gamma and delta subunits) whereas sera immunoadsorbed with epsilon1-219 were screened with human AChR from TE671-epsilon cells(which contains alpha, beta, gamma and epsilon subunits) (Beeson et al., Neurology, 47,1552-1555, 1996). The percentage of immunoadsorption was estimated as above. Several MG sera from the group of the sera tested with immobilized alpha1-210 were assayed for binding to human AChR after incubation with immobilized gamma1-218 (43 sera) or epsilon1-219 (22 sera) or BSA only. Incubation with gamma1-218 led to a 29-56% reduction for 16% of the tested sera (7 sera out of 43), whereas it caused a 15%-30% reduction in another 28% of the tested sera (12 sera) (FIG. 6, gray bars). Other tested MG sera reached up to 68% immunoadsorption by gamma1-218 (not shown). […]

[3] = tested on: anti-AChR antibodies from MG sera; assay: Immunoadsorption of anti-AChR antibodies from MG sera by CNBr-Sepharose-immobilized subunit domains, RIA with human AChR from TE671 cells; assay type: binding; settings: expressed in E. coli, refolded, similarly immobilized, same MG sera

alpha-bungarotoxin [alpha-BTX]
IC50 (alpha1-210 fragment): 5 nM

B1: beta1-222: extracellular domain of human muscle AChR beta subunit, Pichia pastoris, FLAG and six-histidine tag (protein)
chain: DYKDDDDKMTPGALLMLLGALGAPLAPGVRGSEAEGRLREKLFSGYDSSVRPAREVGDRVRVSVGLILAQLISLNEKDEEMSTKVYLDLEWTDYRLSWDPAEHDGIDSLRITAESVWLPDVVLLNNNDGNFDVALDISVVVSSDGSVRWQPPGIYRSSCSIQVTYFPFDWQNCTMVFSSYSYDSSEVSLQTGLGPDGQGHQEIHIHEGTFIENGQWEIIHKPSRLIQPPG
modifications: glycosylated
immunoadsorption of anti-AChR antibodies (in words) [1]: lower but very significant percentages

B2: epsilon1-219 (protein)
chain: DYKDDDDKKNEELRLYHHLFNNYDPGSRPVREPEDTVTISLKVTLTNLISLNEKEETLTTSVWIGIDWQDYRLNYSKDDFGGIETLRVPSELVWLPEIVLENNIDGQFGVAYDANVLVYEGGSVTWLPPAIYRSVCAVEVTYFPFDWQNCSLIFRSQTYNAEEVEFTFAVDNDGKTINKIDIDTEAYTENGEWAIDFCPGVIRRHHGGATDGPGETDVIYSLIIRRK
modifications: glycosylated
reduction of anti-AChR antibodies, best-adsorbed sera ([2]; 27% of screened sera (6/22)): 30-54% | reduction of anti-AChR antibodies, intermediate sera ([2]; another 45% of the sera (10/22)): 15%-30% | immunoadsorption of anti-AChR antibodies (in words) ([2]; immobilized on Sepharose-CNBr): lower but very significant percentages; also recorded: considerable amounts

B3: gamma1-218: extracellular domain of human muscle AChR gamma subunit, Pichia pastoris, FLAG and six-histidine tag (protein)
chain: DYKDDDDKRNQEERLLADLMQNYDPNLRPAERDSDVVNVSLKLTLTNLISLNEREEALTTNVWIEMQWCDYRLRWDPRDYEGLWVLRVPSTMVWRPDIVLENNVDGVFEVALYCNVLVSPDGCIYWLPPAIFRSACSISVTYFPFDWQNCSLIFQSQTYSTNEIDLQLSQEDGQTIEWIFIDPEAFTENGEWAIQHRPAKMLLDPAAPAQEAGHQKVVFYLLIQRK
modifications: glycosylated
reduction of anti-AChR antibodies, best-adsorbed sera ([1]; 16% of tested sera (7 of 43), 1 ug immobilized protein, 20 fmoles antibody): 29-56% | reduction of anti-AChR antibodies, intermediate sera ([1]; another 28% of tested sera (12 sera)): 15%-30% | immunoadsorption of anti-AChR antibodies (in words) [1]: lower but very significant percentages; also recorded: large fractions; also recorded: considerable amounts | maximal immunoadsorption in other tested MG sera ([1]; other tested MG sera (not shown)): up to 68% | immunoadsorption of serum no. 3 ([1]; serum no. 3, 1 ug of each immobilized subunit, 20 fmoles antibody): 22%

B4: alpha1-208: extracellular alpha domain of human AChR expressed in E. coli and refolded according to Tsouloufis et al. (protein)
chain: SEHETRLVAKLFKDYSSVVRPVEDHRQVVEVTVGLQLIQLINVDEVNQIVTTNVRLKQQWVDYNLKWNPDDYGGVKKIHIPSEKIWRPDLVLYNNADGDFAIVKFTKVLLQYTGHITWTPPAIFKSYCEIIVTHFPFDEQNCSMKLGTWTYDGSVVAINPESDQPDLSNFMESGEWVIKESRGWKHSV
immunoadsorbing efficiency compared with yeast-expressed alpha domain [3]: significant but much lower | immunoadsorbing efficiency compared with yeast-expressed alpha domain ([3]; listed as alpha-subunit fragment expressed in E. coli): much lower level
